Measured values as given in the supplement of paper PMC12764529.
± gives the half width of the 95% confidence interval.

Tests used:
[1] = folding stability dG unfold from chymotrypsin proteolysis; higher = more stable
Description: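 Folding stability of de novo designed mini-proteins (<80 aa, no Cys; designed by TrROS, TrMRF, ProteinMPNN and the joint model) was measured by cDNA display proteolysis with trypsin and chymotrypsin. Each protease was used at 11 concentrations in a threefold dilution series plus a no-protease condition. K50 was inferred by Bayesian fitting of sequencing counts, and dG unfold was derived against a sequence-predicted unfolded-state K50 (Tsuboyama et al. method). Sequences shown include variable-length N-terminal GS-type padding (SAGGSAGG...) inside a display construct carrying a PA tag. Rows were kept only if the AF2 dimer inter-PAE was >15, to exclude likely homo-oligomers.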

[2] = folding stability dG unfold (combined trypsin and chymotrypsin); higher = more stable
In short: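 Unfolding free energy was derived, per protease or combined, by relating Bayesian-fitted K50 values from sequencing counts to a sequence-predicted unfolded-state K50 and a shared folded-state K50. The underlying digests exposed cysteine-free mini-proteins under 80 residues, in a PA-tagged cDNA display construct, to trypsin and chymotrypsin at 11 threefold-diluted concentrations and to a no-protease condition. A filter kept only designs with AlphaFold2 dimer inter-PAE above 15.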

Row | Sequence | folding stability dG unfold [1] | folding stability dG unfold [2]
1 | SMYVFSTGSKPSSEQLLEKLEKVPNLPKELIKKNTIISDTESSPEIVIPKEVYDKIKKENPEAVKVIESGSA [r9_160_JUSTAS] | -0.991 ± 0.56 kcal/mol | < -1 kcal/mol
2 | SAGGSAGGSFELPVPPNTPVDIEATVTRPDGTPATLVDAEPLGDGTFRVTVRYPDGSTETIEVSAGGSAGGS [r12_31_JUSTAS] | 0.959 ± 0.038 kcal/mol | 0.464 ± 0.061 kcal/mol
3 | SAGGSAGGSAGPRRFMFQIPADEVKLEFPGGAKVTDVEEDPDGYRRVMIEIPPGADPELKSAGGSAGGSAGG [r17_48_TrROS] | 0.142 ± 0.32 kcal/mol | -0.129 ± 0.2 kcal/mol
4 | SAGGSAGGSVYLDPAVLAELEALRQAGLRVAEVREERVEVEGGPPRRVDVRAVVVDLPPEALAASAGGSAGG [r6_771_JUSTAS] | 0.621 ± 0.056 kcal/mol | -0.11 ± 0.18 kcal/mol
5 | SAGGSAGGSAKRTIFIPAEDLQKNPDNAEELAQTIAEEFNDNGKEIKIEQHPDGGVVIELKSAGGSAGGSAG [r3_75_TrROS] | -0.3 ± 0.1 kcal/mol | < -1 kcal/mol
6 | SAGGSAGGSQWIEIELPLPNGRNIQIEMWPNNGMVDVEWPDGKEVEFPVETADDALDRVLDALSAGGSAGGS [r12_866_TrROS] | 0.552 ± 0.12 kcal/mol | 0.0352 ± 0.21 kcal/mol
7 | SAGGSAGGSMKTVKPTELLASLSPEEEVILTTPTSATRLTVEEVKNVPEDTPVDVEVVPRNAASAGGSAGGS [r12_501_JUSTAS] | 0.685 ± 0.015 kcal/mol | 0.244 ± 0.051 kcal/mol
8 | SAGGSAGGSAGGLPPGQKYVIKMYNPNGKRQEHEFEIPPGEPFKDFEFPNGWRYDIYPVKSAGGSAGGSAGG [r7_132_TrROS] | 0.0841 ± 0.29 kcal/mol | -0.321 ± 0.42 kcal/mol
9 | STRTVPIPIRWDNGRLSPDDIRNAIKKALPPGENVKITEETIQNFWQEWAGKNGKPMTPEDFPIRIEVKKSA [r9_197_TrROS] | 0.0542 ± 0.36 kcal/mol | -0.198 ± 0.27 kcal/mol
10 | SAGGSAGGSAGGPPNKKFILRIEHPGRPITFPFKSPKGLDEAADKFPDKFGMPPKIEVHPSAGGSAGGSAGG [r7_18_TrROS] | -0.795 ± 0.92 kcal/mol | < -1 kcal/mol
11 | SAGGSAGGSAGGDPDLPVYSVSPTTIPAPPGQDSPTPGPNSVTVDANGTATVTETSVSLVSAGGSAGGSAGG [r7_556_JUSTAS] | -0.6 ± 0.2 kcal/mol | < -1 kcal/mol
12 | SAGGMLITEEDLAALLAAVPPERPDAVVTLTVGRLQRILPGSTGENEPIPSSVEPSVVTLPVTVPPASAGGS [r16_708_JUSTAS] | -0.833 ± 0.24 kcal/mol | < -1 kcal/mol
13 | SAGGSTAEELADQIHKKFMEQGYKITDVDITYNPNNWVMVKATIRNPDDPNQRMKMNIMIPKDEIKSAGGSA [r2_384_TrROS] | 0.649 ± 0.32 kcal/mol | 0.239 ± 0.29 kcal/mol
14 | SAGGSAGGSAGGGMKLRLVTYSITTTNKVFPSLEEALAAPPDETDGVDEIISSSLKPLLSAGGSAGGSAGGS [r10_729_JUSTAS] | 0.21 ± 0.17 kcal/mol | -0.326 ± 0.15 kcal/mol
15 | SAGGSAGGSAGGGSVTRLPDGVTTVVTFPDGSTVTVPAGVPYTDPNAATPVTVSPVPPALSAGGSAGGSAGG [r7_968_JUSTAS] | 0.119 ± 0.1 kcal/mol | < -1 kcal/mol
16 | SAGGMGVRVEEKVLATSESSTPDGTPVTFTETETKITLPPGTVVTVKKLLETGGGGRKVLEETTSPLASAGG [r13_898_JUSTAS] | 0.092 ± 0.039 kcal/mol | -0.295 ± 0.14 kcal/mol
17 | SAGGSAGGSAGGSPVIFVDPVEGRARVLLAAPAPNPDGEPGGLGLAEVEFEVGDVRLLLSAGGSAGGSAGGS [r4_10_TrMRF] | 0.753 ± 0.075 kcal/mol | -0.00848 ± 0.12 kcal/mol
18 | SAGGSAGGSAGPMYKLKAELNNKPFEVMINPDMPPDDQIYIRDPGEWIEFNIENMKVEPVSAGGSAGGSAGG [r11_247_TrROS] | 0.298 ± 0.21 kcal/mol | -0.0971 ± 0.14 kcal/mol
19 | SAGGSAGGSAGGMITVNPRGGTATFTTSSGETTTVPASLADQVRVDTGLPDAPVFTAPPASAGGSAGGSAGG [r7_235_JUSTAS] | 0.183 ± 0.23 kcal/mol | < -1 kcal/mol
20 | SAGGSAGGGASTRRTITVPYEDPEEAFEKVKEEVKAETGKPTEVTLTEIDPNNPGVITVEVTVSSAGGSAGG [r6_211_JUSTAS] | 0.938 ± 0.019 kcal/mol | 0.351 ± 0.07 kcal/mol
21 | SAGGSAGGSAGGLLRAPDGSTAIVVRDASPETVARALHELNPNAVIVVAPIPNVAVIYLDSAGGSAGGSAGG [r7_370_TrMRF] | 0.178 ± 0.1 kcal/mol | -0.575 ± 0.51 kcal/mol
22 | SAGGSAGGSAGKKTLYVIKIELSDEQLKEAKKEGKPLKLKAEIVEVKPVKVEVKKEYKKESAGGSAGGSAGG [r11_26_TrROS_Hall] | 0.586 ± 0.31 kcal/mol | -0.167 ± 0.56 kcal/mol
23 | SAGGMTTTTTLEVAPDTPYEAALAEIEAALAAAAAGRPVASSPVAARPGGARTLPLVVTDGAVTALGSAGGS [r8_7_JUSTAS] | 0.954 ± 0.041 kcal/mol | 0.35 ± 0.07 kcal/mol
24 | SAGDWIREAIKKAGYDNVEIEEIQPNPNGGVSIVIQPSPGMPREQQRRAQEEIVDALREESPDFKIHIHSAG [r5_101_TrROS] | 0.584 ± 0.087 kcal/mol | 0.192 ± 0.26 kcal/mol

Row | Sequence | folding stability dG unfold [1] | folding stability dG unfold [2]
25 | SAGGMLSRESTDPGPGRRTLTREEPLPDGTVPVTVTTESPDPSVTTVETRLVFPGPAVETPTRTAAPSAGGS [r16_684_JUSTAS] | 0.78 ± 0.038 kcal/mol | 0.281 ± 0.052 kcal/mol
26 | SAGGSAGGSAGGSMVPVPVNILKLAPGGIPLGTYPVEPLRKEGISPEEFAKKNGYIISGSAGGSAGGSAGGS [r10_153_JUSTAS] | -0.0261 ± 0.3 kcal/mol | -0.827 ± 0.26 kcal/mol
27 | SAGGSAGGMVITFTAPDGTPLGTVEVELPPNNPEAEEEARELAEALRAELEEAGRPVAATVEPASAGGSAGG [r6_884_JUSTAS] | 0.903 ± 0.088 kcal/mol | 0.309 ± 0.14 kcal/mol
28 | SAGGSAGGMFVPEGKTVTVKLPGNETVTVKVKAGNSRPFDSLEEIEAFAAQPGFDIEVSSSPAKSAGGSAGG [r6_433_JUSTAS] | 0.0627 ± 0.077 kcal/mol | -0.722 ± 0.21 kcal/mol
29 | SAGGSAGGSAGGSPRHYYVEIEFPNGRKMSIPIESPEEALDYLEDHNYPIKDVELHPLKSAGGSAGGSAGGS [r4_213_TrROS] | 0.0167 ± 0.25 kcal/mol | -0.323 ± 0.41 kcal/mol
30 | SAGGMITLEEPELDPSRPVTRVKVLTEIPAPGGVPVVVETTYTDTRAPGDPSVTVVTSTTTVVPGAAGSAGG [r13_131_JUSTAS] | -0.0242 ± 0.055 kcal/mol | -0.834 ± 0.27 kcal/mol
31 | MTTETLEEEEIPEEGIRIETVRTTDASGKPSTETVVTYEEVPLEPENTAPPVKFDDKGKRYNPGIGLEGLDS [r1_270_JUSTAS] | -0.664 ± 0.24 kcal/mol | < -1 kcal/mol
32 | SAGGSAGGSAGMLSVTELSTEEKGSLVTTTTRATVGSTTVTTTTTTFVPRSTALLNPDRGSAGGSAGGSAGG [r11_213_JUSTAS] | 0.55 ± 0.089 kcal/mol | -0.0509 ± 0.48 kcal/mol
33 | SAGGSAGGSMEKRKLEIEIHLPASEATEEEMEELAEEYAKKNPEADEVTFKFTVEESDKESLESAGGSAGGS [r20_86_JUSTAS] | -0.141 ± 0.25 kcal/mol | -0.605 ± 0.33 kcal/mol
34 | SAGGSAGGSAGTATLELTVGGKKATATVEPDPDSPAPVVTVKVGDKPVVLNPDGTWTPADSAGGSAGGSAGG [r11_732_TrMRF] | -0.908 ± 0.2 kcal/mol | < -1 kcal/mol
35 | SAGGWVKDPDGQTVEMKVLDPGMNKDNAKPFADNIAEQLHRQHGMNPNNVKVKVETDPENGTVRVKVKSAGG [r13_913_TrROS] | -0.385 ± 0.39 kcal/mol | < -1 kcal/mol
36 | TIKELAKKLGGPITVETEQYPIENPDGNPYYITDIEVQVNPNDGSLRINYEVYNPGNGKKQEEEDTIPLDDS [r1_448_TrROS] | -0.708 ± 0.42 kcal/mol | < -1 kcal/mol
37 | SAGGSAGGSAGGDVNSPNIPPVLTVEPVEVLDPGGGGLRRRVVYVAPGGIVLETEERPESAGGSAGGSAGGS [r10_261_JUSTAS] | 0.702 ± 0.12 kcal/mol | 0.156 ± 0.16 kcal/mol
38 | SAGGSAGGSAGGSKKKKKKPKKVLLVRNKKTKKLYVFKTKEEAKKAGFEIVKDGKIKKKSAGGSAGGSAGGS [r4_306_TrROS_Hall] | 0.258 ± 0.55 kcal/mol | 0.0938 ± 0.41 kcal/mol
39 | SAGGSAGGSAGGPPIIEFPIKGDNPEQAKRFAKEVVDLLPDQNPENVDITTTDGWVRITSAGGSAGGSAGGS [r10_182_TrROS] | -0.636 ± 0.67 kcal/mol | < -1 kcal/mol
40 | SAGGSAGGSAGGGPGFTVLERREDPATGTVTILRRFAFPDGSTALEPRVVPRAPDERLESAGGSAGGSAGGS [r10_605_JUSTAS] | -0.0135 ± 0.17 kcal/mol | < -1 kcal/mol
41 | SAGGEEPKRKTVEVPAGQPISELLDALKQYDEVQIRMGNGEEHEIPPNDPPDLEDLPLPPGNTFEIEVSAGG [r13_399_TrROS] | -0.126 ± 0.12 kcal/mol | < -1 kcal/mol
42 | SAGGSAGGSVEELLAAATSEDPAKGLARAELPSGATATVDPAAGTVTITFTSPGTPSTTTVPAPSAGGSAGG [r6_793_JUSTAS] | 0.33 ± 0.13 kcal/mol | < -1 kcal/mol
43 | SAGGSAGGSAGGMTITVPVEGVEEAIEKAKKEHPNTEIKITLLKPGGEKATTRTVKILGSAGGSAGGSAGGS [r10_741_JUSTAS] | -0.403 ± 0.13 kcal/mol | -0.951 ± 0.29 kcal/mol
44 | SAGGSAGGMLVPLDDTRVVPLPDGSYAVLVRPADGSELLREFDSLEDAVEWAEATGAGVADLPASAGGSAGG [r6_84_TrMRF] | 0.0582 ± 0.18 kcal/mol | -0.553 ± 0.34 kcal/mol
45 | SAMKIEIEVPSLEQVKKLEKLLPDKYKISEVKVDPETKKVYVIIELDPSLSPEEVAKLEKEFEEVVKEESAG [r14_306_TrMRF] | 5.03 ± 0.28 kcal/mol | 5.14 ± 0.58 kcal/mol
46 | SAGGSAGGSAGGMPVPRRLEIVVEPEYTEEEIEKIKKELIENGNPEIEEVVVVLPPNLESAGGSAGGSAGGS [r10_233_JUSTAS] | 0.285 ± 0.04 kcal/mol | -0.385 ± 0.36 kcal/mol
47 | SAGGKARITRIEAEPDPLRVEVEVELPDGRKVRAVAVVPPGEGGVARVRTAVDFGEGVVPAADIEIPPSAGG [r13_728_TrMRF] | 0.704 ± 0.016 kcal/mol | 0.236 ± 0.052 kcal/mol
